Assays:
[1] = Halogenation of the initial 300 compound library by purified halogenase, LCMS; type: biochemical; conditions: out of 300 compounds
[2] = Halogenase activity of Dsg205 and Dsg701 against 600 member compound library, LC-MSMS assay; type: biochemical; conditions: 600 member compound library
[3] = engineered to expand substrate scope; cited from earlier work

Row | Molecule | compounds of the initial 300 compound library halogenated [1] | members of the library halogenated (substrates accepted) [2] | yields after directed evolution and rational design [3]
1 | Dsg205: halogenase from Trichoderma virens Gy29-8 GenBank: EHK23009.1 (protein, left off: small tags and cut ends) MAIPEKCTVLVVGGGPAGSYAAAALAREGIDTVILEADKFPRYHIGESMLASMRHFLRFIDVDSVFDSYGFTKKVGAAFKLNPKKREGYTDFLAAGGPENYAWNVVRSEADQLLFQHAAKSGAKAFDGVQVKSINFIDVPYKGPGQLPHDYPGRPVSATYVQKDDNTPREIKFDYIIDASGRVGILSTKHLKNRKYNQGLKNVATWGYWKGAGAYGKGTPRENSPFFEALQDESGWAWLIPLHNGTASVGIVMNQKMSVERKTQAGSPDSKTFYLDCLKELAPDLTKLMENGELITDIKSAADYSYSASGYAIPYARIAGDAGCFIDPYFSSGVHLAFVGGLSAAATIAAAIRGDCSEEAAADWHSKKIADAYIRFLLVVLSAYRQIRSQEEPVLSDINEDNFDRAFAFFRPVIQGIADVDTKLSQDELRKTLEFCSNAFEPVKPEDRTAMLEKLGKDPATAYQVDLSDQQRTVVDHIRARQMMRTEDTININSFGTDSINGFVPNLKRGELGLVPAKV | 3 | 33 | 
2 | PrnA: tryptophan 7-halogenase, first step in pyrrolnitrin biosynthesis (protein, UniProt P95480 1-538, looked up) Tryptophan 7-halogenase PrnA: MNKPIKNIVIVGGGTAGWMAASYLVRALQQQANITLIESAAIPRIGVGEATIPSLQKVFFDFLGIPEREWMPQVNGAFKAAIKFVNWRKSPDPSRDDHFYHLFGNVPNCDGVPLTHYWLRKREQGFQQPMEYACYPQPGALDGKLAPCLSDGTRQMSHAWHFDAHLVADFLKRWAVERGVNRVVDEVVDVRLNNRGYISNLLTKEGRTLEADLFIDCSGMRGLLINQALKEPFIDMSDYLLCDSAVASAVPNDDARDGVEPYTSSIAMNSGWTWKIPMLGRFGSGYVFSSHFTSRDQATADFLKLWGLSDNQPLNQIKFRVGRNKRAWVNNCVSIGLSSCFLEPLESTGIYFIYAALYQLVKHFPDTSFDPRLSDAFNAEIVHMFDDCRDFVQAHYFTTSRDDTPFWLANRHDLRLSDAIKEKVQRYKAGLPLTTTSFDDSTYYETFDYEFKNFWLNGNYYCIFAGLGMLPDRSLPLLQHRPESIEKAEAMFASIRREAERLRTSLPTNYDYLRSLRDGDAGLSRGQRGPKLAAQESL |  |  | 15-65%
